# Results from the DeepSol protein solubility set.
# Experiment: soluble on expression in E. coli; label from the status in PepcDB or PDB records
row,Sequence,soluble on expression in E. coli
1,MGSDKIHHHHHHMSHLPHLIAKLENHAEWVKRLVLVGQKSWHTPLQKGGWSPAEVIHHFHRWDDFARNYRFIPFLAGRATFTAGAHAKFNEHSEREVRDGLGKEAIIVQCLKSRYALIETVEKLREEAWEQTLTIGDHDLSIHTYLQGVIEHDRHHREQIEQFFSLEQQGKLPMVNITERCGEELPMNLLLLADPEQAMIERYLSGGLGFLAEVEGTPVGVIVLKDKGHGLFEVMNIAVAEQEQGKGYGKLLLLHGIHVALKRGADRIEIGTGNSSIGQLALYQRCGFSITAVDKDFFTKHYHEPIVEQGIRCEHMIRLAQDLK,not soluble
2,MGSDKIHHHHHHMSICIKDQIQNMNIVIGCTVGCAYCYARNNVKRWHMIDDFAAPEFFPGKLKMMEKKRPQNFLLTGMSDLSGWKPEWRNVVFAKIRENPQHQFLFLTKRPDLLDFDTDLENAWFGVTVTRKAELWRIDALRKNVRAKHYHVTFEPLFDDPGTVDLSGINWIVVGTMTGAQSRKIHTEPEWAWSLADQAHKLGIPVFMKEDIVPIIGDENMIQEMPEEFNKVLEVQKSWKK,not soluble
3,MGSDKIHHHHHHMSIQVKALSKRIDNREILRGITFTWQPGRIVGLVGRNGVGKTTLFRTMADHYLADEGELVIEGQSTLQQPYCRQKLFYIDTQRHFFGGRRLRQIITTYALAYDDFDQSQLTALLAAEHLSTKSYYQRLSKGQQMLFQILLALASHVPYIILDEPFDGLDIIVRERIVAYMVEEVAEHGVSFLISSHNLDELDGLCDQVLFLQHHELVADYDLESLRATARKFQLVFADKHIPAVVKEHGQLIKVYGRVLEVYFADYTPTIETALQQTQPLMMAVQPLTITDVFRVKLGDRQAVWGGV,not soluble
4,MGSDKIHHHHHHMSISIYAFYNNKGGVGKTTLCSNAATLYAEKNPKTQVLVIDMCPQANISQFLLGGGKKGYQINQRLQSSATRKNIVGFIDWLLKGNSNFRKPNTSYQVPVYRYNPNISENLYLIAGDSFLESLSLALNYAVINPANIKAWSEYMTAIRRLCEYEYNSETYKDMVVFIDCNPSFSMYTQMALVSSDKIVVPMMADFSSLEGIKSLFMLLFGKYPSAALKQYADGIITFNNQVEHFQLKLPLIYEFVFNNYTIKDGVATAFDSIRTELIDFCYEQFNKFPSLFAPCQHTPTSSKEWENYYFSGIKDFHTSGKVSSSLGIPMSMLPKESKYIMPDGSVVRLPISNYSQALEEIELFVDKIH,not soluble
5,MGSDKIHHHHHHMSIVQAKFEAKETSFHVEGYEKIEYDLVYVDGIFEIQNSALADVYQGFGRCLAIVDANVSRLYGNQIQAYFQYYGIELRLFPITITEPDKTIQTFERVIDVFADFKLVRKEPVLVVGGGLITDVVGFACSTYRRSSNYIRIPTTLIGLIDASVAIKVAVNHRKLKNRLGAYHASRKVFLDFSLLRTLPTDQVRNGMAELVKIAVVAHQEVFELLEKYGEELLRTHFGNIDATPEIKEIAHRLTYKAIHKMLELEVPNLHELDLDRVIAYGHTWSPTLELAPRLPMFHGHAVNVDMAFSATIAARRGYITIAERDRILGLMSRVGLSLDHPMLDIDILWRGTESITLTRDGLLRAAMPKPIGDCVFVNDLTREELAAALADHKELCTSYPRGGEGVDVYPVYQKELIGSVK,not soluble
6,MGSDKIHHHHHHMSKKVVVTGANGYIGAHLIAELQKHSQHFQTIAVDIDDKYIPKGVTFVSMDLLNEARKETLYKECGEPDICVHLAWRDGFQHNALSHIDDLPCHFHFLKNLADHGTTHFAIAGSFREYGSVNGMVDQDAVVIPDNFYTLAKSMLKQALEIYFKEKNICLQWLRPFTVYGNDSRNNSIMSKIIRWEDEGKQSFPFTSGNEEYDYVSVYEVARQIAAVISQREVDGIIDCCTGKPTRLGDKIEGFIRENHFKIRPEYGAFPKREYDSSVIYGDNRKITEIIKKCILF,not soluble
7,MGSDKIHHHHHHMSKPDRVVLIGVAGDSGCGKSTFLNRLADLFGTELMTVICLDDYHSLDRKGRKEAGVTALDPRANNFDLMYEQVKALKNGETIMKPIYNHETGLIDPPEKIEPNRIIVIEGLHPLYDERVRELLDFSVYLDIDDEVKIAWKIQRDMAERGHSYEDVLASIEARRPDFKAYIEPQRGHADIVIRVMPTQLIPNDTERKVLRVQLIQREGRDGFEPAYLFDEGSTIQWTPCGRKLTCSYPGIRLAYGPDTYYGHEVSVLEVDGQFENLEEMIYVEGHLSKTDTQYYGELTHLLLQHKDYPGSNNGTGLFQVLTGLKMRAAYERLTSQAAPVAASV,not soluble
8,MGSDKIHHHHHHMSKSITRKIQLTGGSTYIVSLPKEWIKALSLSAGDEVEIYQDTDMKLLIVPKSANTTDQKEIKKIIHCDNVTSEAIIREFIAYYIAGFSSVSITCPRMSSSTRAYIKDVVRRRLLGAEVIEEDVSTISIQFLVDEKELSIKKAISRAFTISYNMLRDSLEAISKADIELAKEISGRDDEVDRFFFYIARQLTISVKAINVLDSEGYNLTQMVDIYSVAKTIERVGDHANRIASLVEDVSKFSNKEDLVNLGLTILESYKSAMNAFLNEKKDIAHSLISNIEIFEKLRELQEIAIKSNDNPKIITSTSMTVESLRRVARYSADIAEATIDILAKSNK,not soluble
9,MGSDKIHHHHHHMSLDLSTPLQLIGRSVEFQRVVEVLAQDGDLLITGVPGSGRRTLVRWGVTEVRAIALDIDCIRATDGERFLQLLTEAINQNWQAEKIQSWLDKNAKEFFTFHPETKLKLLRSLSQKQIWQAFELLLELPQIMAVDLNKRLVLILQSFPHIRSWDRNGLWEISFRRKIKEHTHVSYVLIATIAETGNYSDENNYPLETIQLPPLNRDVLAVWAREILHGSKLTFDSRSKALQLFLDAVQGHIGDAMAIIRRLQTLCVPDSLVTENDVQQAIEGLLKDLSMTYESLLMLLPANQVHLLECLALDPTEKPQSKDYIQKHGLSRGGSLQGALTGLHHKGLIYGAEQGYLLAMPLLALWLRQRLS,not soluble
10,MGSDKIHHHHHHMSLKDYDAARLAQVREEVTAKYAELKAKNLSLDLTRGKPSAEQLDLSNDLLSLPGGDFRTKDGVDCRNYGGLLGIADIRELWAEALGLPADLVVAQDGSSLNIMFDLISWSYTWGNNDSSRPWSAEEKVKWLCPVPGYDRHFTITEHFGFEMINVPMTDEGPDMGVVRELVKDPQVKGMWTVPVFGNPTGVTFSEQTCRELAEMSTAAPDFRIVWDNAYALHTLSDEFPIVHNVIEFAQAAGNPNRFWFMSSTSKITHAGSGVSFFASSKENIEWYASHANVRGIGPNKLNQLAHAQFFGDVAGLKAHMLKHAASLAPKFERVLEILDSRLSEYGVAKWTSPTGGYFISVDVVPGTASRVVELAKEAGIALTGAGSSFPLHNDPNNENIRLAPSLPPVAELEVAMDGFATCVLMAALEV,not soluble
11,MGSDKIHHHHHHMSLKFDFSNLFEPNISGGLTDEDVKSVEEKVTSAVRNFVENTPDFAKLDRSWIDSVKSLEDWIINFDTVVVLGIGGSGLGNLALHYSLRPLNWNEMTREERNGYARVFVVDNVDPDLMSSVLDRIDPKTTLFNVISKSGSTAEVMATYSIARGILEAYGLDPREHMLITTDPEKGFLRKLVKEEGFRSLEVPPGVGGRFSVLTPVGLLSAMAEGIDIDELHEGAKDAFEKSMKENILENPAAMIALTHYLYLNKGKSISVMMAYSNRMIYLVDWYRQLWAESLGKRYNLKGEEVFTGQTPVKALGATDQHSQIQLYNEGPNDKVITFLRVENFDREIVIPETGRAELSYLARKKLSELLLAEQTGTEEALRENNRPNMRVTFDGLTPYNVGQFFAYYEAATAFMGYLLEINPFDQPGVELGKKITFALMGREGYTYEIKERSKKVIIE,soluble
12,MGSDKIHHHHHHMSLLTVKDLGQSFIDKTLYEDANFVLNKEDHMGVTGQNGVGKSTLIKILTGEILPDNGQVKWQNKIDVGYLDQYAKLAPGVTIRGFLRTAFDDLFQKEKELNELYTKYAETSDEDLLEKAGKVQTYLEENNFYDIDTEIEQVASGLGLADLGYDHDVSKLSGGQRSKIILGKLLLQNPDVLVLDEPTNYLDVSHIDWLVDYLNNFEGAFIVVSHDYDFLGRITNCIIDIDFGTITRYTGTLKQAMRQKAANRETYLKAYANQQRKIAKTEAYIRKNKAGTRAKSAKSREKQLARMDVLTPPKNNRRAKFEFPYVATASNLLLQTQDLVIGYDQALVKSAFNFSVGGDEKVAITGFNGIGKTTLLKTLLGQLKPIYGSYDLSVTAKLAYFKQDLTWPNNNMTPLQYLQEEFERKKPKELRQALARMGLTAQQAMSPLKELSGGEQEKVKLAKMQFEPANLLFLDEPTNHLDNDTKDALRKAIINFSGGVIIVSHERDFFRGDWIDKTIDIETMN,not soluble
13,MGSDKIHHHHHHMSLPKYVEQLLKEKSNVRVFSFKYDGKSYWLKQTEKLSFIWRFLKSNPAEMLKSEIIRLQELNKKSAPVPKLVLFGDNFFVTEDVGSSANTWVENEDLSIELRNKVLFDCAQALASLHKQNITHGRPALRDMIWCEEKVIFVDFECTSSSNNIDWQKIRDGLVFIHSLGRSSTVSDEQIALTVTHYRQYCDADIWQKTADFIYKYRWAYYVLRIFKPVARMDLIAIYRLFEAILKNQETL,not soluble
14,MGSDKIHHHHHHMSLYLDDTLSRIVELDLKDTRIVPFLAGEPGIGKTSFIYGIGERAGYKVFSISVNTLADKGDLTGARTLQDPADGKWKQMFFPHATFVEANDYALANPNETVVILLDEINRTDSDVTSASMTISTERRVGTTDLAPNVRLAVTGNLTGNVTHLDSASLTRFSLYEVKPSAETFMNIMGGRLNKYIRTVLTKYPEYIFMKPTTATALITTGDDDDDHTTNAKQMMDFNAVLGSDQDMVQFTAPRTIEGLSVWLNNADDDFLRLLLQEKVDGLARSMSLLQATLESHTGDTAFTAEVLSEMTNDLLSSASQAPSGPIKPFVYDRLAAAPSNTVLEQEVHTLSLNDRADVLLFALHDTVNNAAPSIIAHLASEGVLDELPKDRISKIVSLGPVPTANYHALTRQDTTLTRNLGPAVLGFLES,not soluble
15,MGSDKIHHHHHHMSNDETVEKVTQQVSELKSTDVKEQVVTPWDVEGGVDEQGRAQNIDYDKLIKQFGTKPVNEETLKRFKQVTGREPHHFLRKGLFFSERDFTKILDLYEQGKPFFLYTGRGPSSDSMHLGHMIPFVFTKWLQEVFDVPLVIELTDDEKFLFKHKLTINDVKNFARENAKDIIAVGFDPKNTFIFSDLQYMGGAFYETVVRVSRQITGSTAKAVFGFNDSDCIGKFHFASIQIATAFPSSFPNVLGLPDKTPCLIPCAIDQDPYFRVCRDVADKLKYSKPALLHSRFFPALQGSTTKMSASDDTTAIFMTDTPKQIQKKINKYAFSGGQVSADLHRELGGNPDVDVAYQYLSFFKDDDVFLKECYDKYKSGELLSGEMKKLCIETLQEFVKAFQERRAQVDEETLDKFMVPHKLVWGEKERLVAPKPKTKQEKK,not soluble
16,MGSDKIHHHHHHMSNEFDSDRYSTYWAEEWLDVKQYSPIGRHTRRKIMQLLARCPAPDTFADFGSGEGSLLSMVHAKYPAARLFGCDFASESVRRCRQRLPQAEIVLKDLTDPEPPFAGRVSVGVCSEVLEHIEDDARALHNLGTWAEHVIITVPGGELDESSRAVGHLRHYTKDSLRGLARRAGLEVLHLEEWGFPFSYPWYARVRNKAGYGMMVGRYSMRKKLLCHALYLLFFGNDLFSSGNKLFMLCRGSKA,not soluble
